Results from patent US11813311B2, “Treatment and prevention of metabolic diseases” (Singapore Health Services PTE LTD., priority 2019, dated 2023).

Assay: Blood pharmacokinetics and biodistribution of 125I-X209
Format: in vivo, mouse
Description: C57BL/6J mice (10-12-weeks old) were retro-orbitally injected (left eye) with 100 μl of freshly radiolabeled ^125I-X209 (5 μCi, 2.5 μg) in PBS. Mice were anesthetized with 2% isoflurane and blood were collected at several time points (2, 5, 10, 15, 30 m, 1, 2, 4, 6, 8 h, 1, 2, 3, 7, 14 and 21 days) post injection via submandibular bleeding. For biodistribution studies, blood was collected via cardiac puncture and tissues were harvested at the following time points: 1, 4 h, 1, 3, 7, 14, 21 days post injection. The radioactivity contents were measured using a gamma counter (2480 Wizard2, Perkin Elmer) with decay-corrections (100× dilution of 100 μl dose). The measured radioactivity was normalized to % injected dose/g tissue.

B1: X209: mouse anti-mouse IL-11Rα IgG (IgG1κ), neutralising; VH SEQ ID NO:24, VL SEQ ID NO:25 (antibody, V domains shown)
VH: QVQLQQPGAELVRPGSSVKLSCKASGYTFTNYWMHWLKQRPVQGLEWIGNIGPSDSKTHYNQKFKDKATLTVDKSSSTAYMQLNSLTSEDSAVYYCARGDYVLFTYWGQGTLVTVSA
VL: DIVLTQSPATLSLSPGERATLSCRASQSISNNLHWYQQKSHEAPRLLIKYASQSISGIPARFSGSGSGTDFTLSFSSLETEDFAVYFCQQSYSWPLTFGQGTKLEIK
modifications: Enx209 VH; Enx209 VL
**Q.** With B1 as the molecule, how does the liver uptake (125I-X209, mice) read?
**A.** good liver uptake

**Q.** What about the in vivo half-life (125I-X209, retro-orbital injection, mice) of the same molecule?
**A.** approximately 18 days
